# Where “and” joins values, the source holds several entries; their conditions need not be identical. Equal entries are not always repeated.
# Assays:
# [1] = molecular target: Cetuximab (Erbitux, 5 mg/mL); experiment: SEC; SE/UHPLC-UV as a10; sample exposed to daylight for 24 h
# [2] = molecular target: Cetuximab (Erbitux, 5 mg/mL); experiment: SEC; SE/UHPLC-UV as a10; sample exposed to accelerated light (250 W/m^2) for 24 h
substance,measurement,setting,value
"Cetuximab (Erbitux, 5 mg/mL) (antibody)",stoichiometry N,[1],3
same,stoichiometry N,[2],3 and 8 and 5
